Assay: soluble on expression in E. coli; label from the status in PepcDB or PDB records

Sequence | soluble on expression in E. coli
MGSDKIHHHHHHMFVQARIDTTQDALVWPVVEFQGWVAFFGQRDSFDVYLNGDRVDNVHTVARPDVEEVLGAGWASIGWHVVCDIGQSARDNGHAIIFDVRVRTQTVAQGCFRYKDRLETTTQPLKIILHMPKTGGTSLRLALEEHRKNLFLLPLYHRDFSAIKSLSSLSVDRLDVAYGHVLYGIHEQIARPVTYMTVLRNPYDFVTSLYFFAKYVQRDHSILAAENIVDAVNTVNRPEFDNYYTRTIAGIQPEEPVTEEDLQRAIKNIDTHFSFIGLAERSRQSFRIFSEVFGLPLRYLKENVTPDLVEREFMNFRSVNEEIKKCINLDLILYKYAIKKFWYMDIE | not soluble
MGSDKIHHHHHHMSNPLLKQICELDVFTLLVFKTIFDTGHANSAAKALDVSAPKISRCLNALRLTFNDELFYRRQQGLKPTPLAESLYAAICQFTNSVYNLEQSALQIQNTHNTTDLPLHIAVSNELLSFLAPQLSSPDVITQLGKIRLHKWQENSAELIHAGELDFGITLENADNKELSYTRLGCISGIYVVASKHHPIWQTELSITLEHICRHPFLCLDLKGFNSKVDPLEFFCQRQGILLPSIDRVIDREEWYAHLLTIQSVAFCSSIDMHTVKHMPGLKLVPLSLTELHRLHDSMLPPQYYLVEKPRARRRYSQTQCDIVVSPLITTLIPTL | not soluble
GMINTKEDFLLLIKQIEQKSGYKKPKAFGIARLDRGQLNKNKILQASFALINYEQNFGSAAIMLEAFMQRGVEIDFNASEFVQTLKLEDIDFALSCFKPFLEEDGHQNIDLLKIIKDKFKDDEFSFVCLFEDKEPLSVESIYLKLYLLSTKKVPLRSINLNGAFGLLSNVAWSDDKPIELEYLRANEMRLKMSNQYPKIDFVDKFPRFLAHIIPEDNTRILESSKVRMGASLAAGTTIMPGASYVNFNAGTTGACMVEGRISSSAIVGEGSDVGGGASILGVLSGTSGNAISVGKACLLGANSVTGIPLGDNCIVDAGIAVLEGTKFLLKDAEELAKLNPYFNFDKEIYKGLELKGLNGLHFRQDSISGAMIVALNKKAVKLNEALH | soluble
MSEDGGVTTDERACAAPLQLSNTFPRVSRHAVQTGLSPHPRVRNVIAVGSGKGGVGKSTIAVNLAVALQRTGVRVGLLDADIYGPSVPAMLGLSGRPESPDNKLIEPLRAFGIEAMSIGLLIDVDTPMIWRGPMATSALTQLFNDTLWGDLDYLLIDLPPGTGDIQLTLSQKIPVAGAVIVTTPQDIATLDARKALKMFEKVNVPVLGIVENMAMHCCRQCGHVEHLFGEGGAQRMAEHYHVPLLGSLPLDIVIREHGDLGQPITVAAPKGSVGQAYAAVAACLAAELAKRPRAAIPMTTTLGLEHHHHHH | not soluble
MGHHHHHHSHKCNAGFFHTLSGECVPCDCNGNSNECLDGSGYCVTTDGEDPGFSASALSFILSSQGAREARAPT | not soluble
YVTNDLANSMKDRGTMLADSLRVDFAIINDPSKIPVSGTGPYTYTFYVKNIGKDSIAFSSNSIQVFIDGNIIPPANLTFTDVNGNSISSLDPGEVGAIQVTLGNALDPGYHRIQVVLENGKERVLIFKI | not soluble
IKDPQTGAPVPLRALINNVSGYVIKTEMYTEVKNAKGEWVFKSLGKPGSMHLRPIATPYPVKEWLQPKRYKAHLMGTTYVYDFPELFRQASSSQWKNFSADVKLTDDFFISNELIEDENGELTEVEREPGANAIGMVAFKITVKTPEYPRGRQFVVVANDITFKIGSFGPQEDEFFNKVTEYARKRGIPRIYLAANSGARIGMAEEIVPLFQVAWNDAANPDKGFQYLYLTSEGMETLKKFDKENSVLTERTVINGEERFVIKTIIGSEDGLGVECLRGSGLIAGATSRAYHDIFTITLVTCRSVGIGAYLVRLGQRAIQVEGQPIILTGAPAINKMLGREVYTSNLQLGGTQIMYNNGVSHLTAVDDLAGVEKIVEWMSYVPAKRNMPVPILETKDTWDRPVDFTPTNDETYDVRWMIEGRETESGFEYGLFDKGSFFETLSGWAKGVVVGRARLGGIPLGVIGVETRTVENLIPADPANPNSAETLIQEPGQVWHPNSAFKTAQAINDFNNGEQLPMMILANWRGFSGGQRDMFNEVLKYGSFIVDALVDYKQPIIIYIPPTGELRGGSWVVVDPTINADQMEMYADVNARAGVLEPQGMVGIKFRREKLLDTMNRLDDKYRELRSQLSNKSLAPEVHQQISKQLADRERELLPIYGQISLQFADLHDRSSRMVAKGVISKELEWTEARRFFFWRLRRRLNEEYLIKRLSHQVGEASRLEKIARIRSWYPASVDHEDDRQVATWIEENYKTLDDKLKGLKLESFAQDLAKKIRSDHDNAIDGLSEVIKMLSTDDKEKLLKTLK | soluble
QFWDLNAKLVDIPTKMRVERWAFNFSELIRDPKGRQSFQHFLRKEFSGENLGFWEACEDLKYGDQSKVKEKAEEIYKLFLAPGARRWINIDGKTMDITVKGLKHPHRYVLDAAQTHIYMLMKKDSYARYLKSPIYKEMLAKAIEPQG | soluble
MGSDKIHHHHHHMELVIRDIRKRFQETEVLRGASYRFYSGKITGVLGRNGAGKTTLFNILYGDLAADNGTICLLKDNHEYPLTDKDIGIVYSENYLPEFLTGYEFVKFYMDLHPSDDLMTIDDYLDFMEIGQTERHRIIKGYSDGMKSKLSLICLMISKPKVILLDEPLTAVDVVSSIAIKRLLLELSEDHIIILSTHIMALAEDLCDIVAVLDKGKLQTLDIDRKHEQFEERLLQVLKGDEYDK | not soluble
MSLEASVEGLDGPAATNVVNFLEPLDTRNISEARLDSDIRERTQRALRAFGYYSPQIETSYPDGMFAGDVVIAIDPGPRTHITQLDLGVDGAAGDDPAFRKALASIPLEEGDPLRHDRYDSAKTRLSTLALERGYFDAGFAQQRMEVRPWEASARLFLRMRSGPRYRFGDIRFAGSQIEEARLRRMLPFTKGDPYLAGQLAEYNQRLGQTNWFRGIAVRPRIGDERNVTRGGQWWQEATGRTPPLSSGAGLAAVRRLHGLQSTDVPVDVDLVPADRHKFETGIGYATDVGPRVQFSWEMPWLNDRGHSLSNSLYLSGPEQRFDGEYVMPLANPLRDSYRLSYGLRSLDNEDTQSLESSVELARRWEFDNDWVQELYFRTTYEDFTQADQDEQVLLLYPGISWTRTRTRQPNFPRWGDRQRLALEVSDPAWGSDARFLRARFDSQWIRTLGSDNRFVGRIGGGATATDTFDKIPPSLRFFAGGDQSVRGYSYESLSPENDDGELLGGQHMLTASAEYQRRVTGNWWGATFVDTGNAFNAWWPEELKTGAGVGVRWISPVGPVRFDIAHPFDNEEDAWRLHFAIGPEEGHHHHHH | not soluble
MKKWWLAAVVAMIAVGGCAKEETEQKQSLQGANLLRTQTSGTAKHAELNQGPAERAASYLRGRDDVRDVVAVNSEDRLLIAYQIPHMKRWSRKQIEKDIDQKLRDLFPGYDVVSSSDLKIFWKTKELKANMDNRRWDERKVNREIRRIEKLSKEQT | not soluble
MGSDKIHHHHHHMGENMKILISVCGEGFGHTTRCVAIGEALKNDYEISYIAYGKSKNFIEKYGFKVFETFPEIKLKGKDGKFDITSSILNKEYSPKKAIRREINIIREYNPDLIISDCKYSTVVAAKLLKKPVICISNQNYTRYKLKTDLIVYPTMKALNIINERCERFIVPDFPLPYTICEYNLKIIKNMEFIGPLIRYDVDDVDNYGEDYILSVIGGFEYRYKILEELGKIALKNNLNVKLVCGSYEVAKKLMRDLNLNSYKNENVEIIPITTNMKELIKNAELIVSHGGHSTIMEALSFGKPLIVIPDLDHPEQGNNAKKVHDLGCGIALSYKELYRLEEAILDIRNMKMYKRNASKMKELAKKYDGKKNIKKIIDEFFETRKNIRKYYLTDRIANKLINKFKLKIR | not soluble
GSRRASVGSMSKKPPNRPGITFEIGARLEALDYLQKWYPSRIEKIDYEEGKMLVHFERWSHRYDEWIYWDSNRLRPLERPALR | soluble
MIPRRSCWLILLLNLLNVQSLLDASWWSTVAQLSTALAGHNVKPVCELPGLSPGQAQVCELFKDHMPAVSIGAQNAIQECQRQFTGHRWNCSTHYSTGMLGPIHKMATREAAFTYAILSAGVTHEIGRRCKQGLLTSCGCSDETKPKNVPTDWSWGGCGDNVEYGYKFSRDFIDIREKEHDPKRNHDNGRSLMNRRNNEAGRKILKRHRKPKCKCHGVSGACNMKTCWMQLPSMEQVGKILRNKYDKAIRVQINDRGNLQLLADEATKERKTRALPTDLVFMDDSPDYCRFDRHSGTLGTEGRVCKRGSGGAEGCDSLCCGRGYNTYTQEVKSKCNCKFEWCCKVVCQTCNNVTQVDICK | not soluble

Reference: the DeepSol protein solubility set
